Measured values published in patent US20130150294A1 (UNIVERSITY OF TOLEDO, published 2013).

How the values were obtained:
[1] = target: purified pig kidney Na+/K+-ATPase (PKE) (pig, UniProt P05024 6-1021; P05027 1-303); assay: in vitro binding assay with GST-tagged Src truncations and purified Na+/K+-ATPase
[2] = target: T1, Src of LLC-PK1 cells (endogenous) (pig, UniProt K7GM45 2-548); assay: GST pulldown from cell lysates, Western blot
T1 construct: Species from the cell line (pig kidney proximal LLC-PK1); also called Src from the LLC-PK1 cell lysates; Src in TCN23-19 and PY-17 cells (clones of LLC-PK1)

B1: GST-KD1 of Src (other)
chain: LRLEVKLGQGCFGEVWMGTWNGTTRVAIKTLKPGTMSPEAFLQEAQVMKKLRHE
notes: also called GST-tagged Src truncation; not shown: glutathione S-transferase (GST) fusion tag
Does B1 bind [1]?
Result: binds

B2: GST-SERCA-CD3 (other)
chain: GTRRMAKKNAIVRSLPSVETLGCTSVICSDKTGTLTTNQMSVCRMFILDKVEGDTCSLNEFTITGSTYAPIGEVQKDDKPVKCHQYDGLVELATICALCNDSALDYNEAKGVYEKVGEATETALTCLVEKMNVFDTELKGLSKIERANACNSVIKQLMKKEFTLEFSRDRKSMSVYCTPNKPSRTSMSKMFVKGAPEGVIDRCTHIRVGSTKVPMTPGVKQKIMSVIREWGSGSDTLRCLALATHDNPLRREEMHLEDSANFIKYETNLTFVGCVGMLDPPRIEVASSVKLCRQAGIRVIMITGDNKGTAVAICRRIGIFGQDEDVTSKAFTGREFDELSPSAQRDACLNARCFARVEPSHKSKIVEFLQSFDEITAMTGDGVNDAPALKKSEIGIAMGSGTAVAKTASEMVLADDNFSTIVAAVEEGRAIYNNMKQFIRYLISSNV
notes: also called GST-CD3 from rat heart sarcoplasmic reticulum Ca2+-ATPase 2a
Does B2 bind [2]?
Result: no binding (tested: 1 mg LLC-PK1 cell lysates)
